Laboratory results reported in publication PMC11446282 (2024).

B1: CDCA4 (found with purified B55 variants) [human] / B55α WT (immunopurified, Fig. 2) [not stated] (parent complex)
chain 1: MFARGLKRKCVGHEEDVEGALAGLKTVSSYSLQRQSLLDMSLVKLQLCHMLVEPNLCRSVLIANTVRQIQEEMTQDGTWRTVAPQAAERAPLDRLVSTEILCRAAWGQEGAHPAPGLGDGHTQGPVSDLCPVTSAQAPRHLQSSAWEMDGPRENRGSFHKSLDQIFETLETKNPSCMEELFSDVDSPYYDLDTVLTGMMGGARPGPCEGLEGLAPATPGPSSSCKSDLGELDHVVEILVET
chain 2: MAGAGGGNDIQWCFSQVKGAVDDDVAEADIISTVEFNHSGELLATGDKGGRVVIFQQEQENKIQSHSRGEYNVYSTFQSHEPEFDYLKSLEIEEKINKIRWLPQKNAAQFLLSTNDKTIKLWKISERDKRPEGYNLKEEDGRYRDPTTVTTLRVPVFRPMDLMVEASPRRIFANAHTYHINSISINSDYETYLSADDLRINLWHLEITDRSFNIVDIKPANMEELTEVITAAEFHPNSCNTFVYSSSKGTIRLCDMRASALCDRHSKLFEEPEDPSNRSFFSEIISSISDVKFSHSGRYMMTRDYLSVKIWDLNMENRPVETYQVHEYLRSKLCSLYENDCIFDKFECCWNGSDSVVMTGSYNNFFRMFDRNTKRDITLEASRENNKPRTVLKPRKVCASGKRKKDEISVDSLDFNKKILHTAWHPKENIIAVATTNNLYIFQDKVN

Variants of: B1
Test: immunopurification of YFP-B55α variants (IP: YFP), Western blot quantification; read off a plot

Row | Variant | percent of parent
1 | chain 2 MAGAGGGNDIQWCFSQVKGAVDDDVAEADIISTVEFNHSGELLATGDKGGRVVIFQQEQENKIQSHSRGEYNVYSTFQSHEPEFDYLKSLEIEEKINKIRWLPQKNAAQFLLSTNDKTIKLWKISERDKRPEGYNLKEEDGRYRDPTTVTTLRVPVFRPMDLMVEASPRRIFANAHTYHINSISINSDYETYLSADDLRINLWHLEITDRSFNIVDIKPANMEELTEVITAAEFHPNSCNTFVYSSSKGTIRLCDMRASALCDRHSKLFEEPEDPSNRSFFSEIISSISDVKFSHSGRYMMTRDYLSVKIWDLNMENRPVETYQVHEYLRSKLCSLAENDCIFDKFECCWNGSDSVVMTGSYNNFFRMFDRNTKRDITLEASRENNKPRTVLKPRKVCASGKRKKDEISVDSLDFNKKILHTAWHPKENIIAVATTNNLYIFQDKVN [chain 2 Y337A] | ~50%
2 | chain 2 MAGAGGGNDIQWCFSQVKGAVDDDVAEADIISTVEFNHSGELLATGDKGGRVVIFQQEQENKIQSHSRGEYNVYSTFQSHEPEFDYLKSLEIEEKINKIRWLPQKNAAQFLLSTNDKTIKLWKISERDKRPEGYNLKEEDGRYRDPTTVTTLRVPVFRPMDLMVEASPRRIFANAHTYHINSISINSDYETYLSADDARINLWHLEITDRSFNIVDIKPANMEELTEVITAAEFHPNSCNTFVYSSSKGTIRLCDMRASALCDRHSKLFEEPEDPSNRSFFSEIISSISDVKFSHSGRYMMTRDYLSVKIWDLNMENRPVETYQVHEYLRSKLCSLYENDCIFDKFECCWNGSDSVVMTGSYNNFFRMFDRNTKRDITLEASRENNKPRTVLKPRKVCASGKRKKDEISVDSLDFNKKILHTAWHPKENIIAVATTNNLYIFQDKVN [chain 2 L198A] | ~40%
3 | chain 2 MAGAGGGNDIQWCFSQVKGAVDDDVAEADIISTVEFNHSGELLATGDKGGRVVIFQQEQENKIQSHSRGEYNVYSTFQSHEPEFDYLKSLEIEEKINKIRWLPQKNAAQFLLSTNDKTIKLWKISERDKRPEGYNLKEEDGRYRDPTTVTTLRVPVFRPMDLMVEASPRRIFANAHTYHINSISINSDYETYLSADDLRINLWHLEITDRSFNIVDIKPANMEELTEVITAAEFHPNSCNTFVYSSSKGTIRLCDMRASALCDRHSKLFEEPEDPSNRSFFSEIISSISDVKFSHSGRYMMTRDYLSVKIWDLNMENRPVETYQVHEYLRSKLCSLYENDCIADKFECCWNGSDSVVMTGSYNNFFRMFDRNTKRDITLEASRENNKPRTVLKPRKVCASGKRKKDEISVDSLDFNKKILHTAWHPKENIIAVATTNNLYIFQDKVN [chain 2 F343A] | ~28%
4 | chain 2 MAGAGGGNDIQWCFSQVKGAVDDDVAEADIISTVEFNHSGELLATGDKGGRVVIFQQEQENKIQSHSRGEYNVYSTFQSHEPEFDYLKSLEIEEKINKIRWLPQKNAAQFLLSTNDKTIKLWKISERDKRPEGYNLKEEDGRYRDPTTVTTLRVPVFRPMDLMVEASPRRIFANAHTYHINSISINSDYETYLSADDLRINLWHLEITDRSFNIVDIKPANMEELTEVITAAEFHPNSCNTFVYSSSKGTIRLCDMRASALCDRHSKLFEEPEDPSNRSAFSEIISSISDVKFSHSGRYMMTRDYLSVKIWDLNMENRPVETYQVHEYLRSKLCSLYENDCIFDKFECCWNGSDSVVMTGSYNNFFRMFDRNTKRDITLEASRENNKPRTVLKPRKVCASGKRKKDEISVDSLDFNKKILHTAWHPKENIIAVATTNNLYIFQDKVN [chain 2 F280A] | ~110%
5 | chain 2 MAGAGGGNDIQWCFSQVKGAVDDDVAEADIISTVEFNHSGELLATGDKGGRVVIFQQEQENKIQSHSRGEYNVYSTFQSHEPEFDYLKSLEIEEKINKIRWLPQKNAAQFLLSTNDKTIKLWKISERDKRPEGYNLKEEDGRYRDPTTVTTLRVPVFRPMDLMVEASPRRIFANAHTYHINSISINSDYETYLSADDLRINLWHLEITDRSFNIVDIKPANMEELTEVITAAEFHPNSCNTFVYSSSKGTIRLCDMRASALCDRHSKLFEEPEDPSNRSFFSEAISSISDVKFSHSGRYMMTRDYLSVKIWDLNMENRPVETYQVHEYLRSKLCSLYENDCIFDKFECCWNGSDSVVMTGSYNNFFRMFDRNTKRDITLEASRENNKPRTVLKPRKVCASGKRKKDEISVDSLDFNKKILHTAWHPKENIIAVATTNNLYIFQDKVN [chain 2 I284A] | ~160%
6 | chain 2 MAGAGGGNDIQWCFSQVKGAVDDDVAEADIISTVEFNHSGELLATGDKGGRVVIFQQEQENKIQSHSRGEYNVYSTFQSHEPEFDYLKSLEIEEKINKIRWLPQKNAAQFLLSTNDKTIKLWKISERDKRPEGYNLKEEDGRYRDPTTVTTLRVPVFRPMDLMVEASPRRIFANAHTYHINSISINSDYETYLSADDLRINLWHLEITDRSFNIVDIKPANMEEATEVITAAEFHPNSCNTFVYSSSKGTIRLCDMRASALCDRHSKLFEEPEDPSNRSFFSEIISSISDVKFSHSGRYMMTRDYLSVKIWDLNMENRPVETYQVHEYLRSKLCSLYENDCIFDKFECCWNGSDSVVMTGSYNNFFRMFDRNTKRDITLEASRENNKPRTVLKPRKVCASGKRKKDEISVDSLDFNKKILHTAWHPKENIIAVATTNNLYIFQDKVN [chain 2 L225A] | ~75%
7 | chain 2 MAGAGGGNDIQWCFSQVKGAVDDDVAEADIISTVEFNHSGELLATGDKGGRVVIFQQEQENKIQSHSRGEYNVYSTFQSHEPEFDYLKSLEIEEKINKIRWLPQKNAAQFLLSTNDKTIKLWKISERDKRPEGYNLKEEDGRYRDPTTVTTLRVPVFRPMDLMVEASPRRIFANAHTYHINSISINSDYETYLSADDLRINLWHLEITDRSFNIVDIKPANMEELTEVITAAEFHPNSCNTFVYSSSKGTIRLCDMRASALCDRHSKLFEEPEDPSNRSFFSEIISAISDVKFSHSGRYMMTRDYLSVKIWDLNMENRPVETYQVHEYLRSKLCSLYENDCIFDKFECCWNGSDSVVMTGSYNNFFRMFDRNTKRDITLEASRENNKPRTVLKPRKVCASGKRKKDEISVDSLDFNKKILHTAWHPKENIIAVATTNNLYIFQDKVN [chain 2 S287A] | ~130%
8 | chain 2 MAGAGGGNDIQWCFSQVKGAVDDDVAEADIISTVEFNHSGELLATGDKGGRVVIFQQEQENKIQSHSRGEYNVYSTFQSHEPEFDYLKSLEIEEKINKIRWLPQKNAAQFLLSTNDKTIKLWKISERDKRPEGYNLKEEDGRYRDPTTVTTLRVPVFRPMDLMVEASPRRIFANAHTYHINSISINSDYETYLSADDLRINLWHLEITDRSFNIVDIKPANMEELTEAITAAEFHPNSCNTFVYSSSKGTIRLCDMRASALCDRHSKLFEEPEDPSNRSFFSEIISSISDVKFSHSGRYMMTRDYLSVKIWDLNMENRPVETYQVHEYLRSKLCSLYENDCIFDKFECCWNGSDSVVMTGSYNNFFRMFDRNTKRDITLEASRENNKPRTVLKPRKVCASGKRKKDEISVDSLDFNKKILHTAWHPKENIIAVATTNNLYIFQDKVN [chain 2 V228A] | ~78%
9 | chain 2 MAGAGGGNDIQWCFSQVKGAVDDDVAEADIISTVEFNHSGELLATGDKGGRVVIFQQEQENKIQSHSRGEYNVYSTFQSHEPEFDYLKSLEIEEKINKIRWLPQKNAAQFLLSTNDKTIKLWKISERDKRPEGYNLKEEDGRYRDPTTVTTLRVPVFRPMDLMVEASPRRIFANAHTYAINSISINSDYETYLSADDLRINLWHLEITDRSFNIVDIKPANMEELTEVITAAEFHPNSCNTFVYSSSKGTIRLCDMRASALCDRHSKLFEEPEDPSNRSFFSEIISSISDVKFSHSGRYMMTRDYLSVKIWDLNMENRPVETYQVHEYLRSKLCSLYENDCIFDKFECCWNGSDSVVMTGSYNNFFRMFDRNTKRDITLEASRENNKPRTVLKPRKVCASGKRKKDEISVDSLDFNKKILHTAWHPKENIIAVATTNNLYIFQDKVN [chain 2 H179A] | ~93%
10 | chain 2 MAGAGGGNDIQWCFSQVKGAVDDDVAEADIISTVEFNHSGELLATGDKGGRVVIFQQEQENKIQSHSRGEYNVYSTFQSHEPEFDYLKSLEIEEKINKIRWLPQKNAAQFLLSTNDKTIKLWKISERDKRPEGYNLKEEDGRYRDPTTVTTLRVPVFRPMDLMVEASPRRIFANAHTYHINSISINSDYETYLSADDLRINLWHLEITDRSFNIVDIKPANMEELTEVIAAAEFHPNSCNTFVYSSSKGTIRLCDMRASALCDRHSKLFEEPEDPSNRSFFSEIISSISDVKFSHSGRYMMTRDYLSVKIWDLNMENRPVETYQVHEYLRSKLCSLYENDCIFDKFECCWNGSDSVVMTGSYNNFFRMFDRNTKRDITLEASRENNKPRTVLKPRKVCASGKRKKDEISVDSLDFNKKILHTAWHPKENIIAVATTNNLYIFQDKVN [chain 2 T230A] | ~58%
11 | chain 2 MAGAGGGNDIQWCFSQVKGAVDDDVAEADIISTVEFNHSGELLATGDKGGRVVIFQQEQENKIQSHSRGEYNVYSTFQSHEPEFDYLKSLEIEEKINKIRWLPQKNAAQFLLSTNDKTIKLWKISERDKRPEGYNLKEEDGRYRDPTTVTTLRVPVFRPMDLMVEASPRRIFANAHTYHINSISINSDYETYLSADDLRINLWHLEITDRSFNIVDIKPANMEELTEVITAAEFHPNSCNTFVYSSSKGTIRLCDMRASALCDRHSKLFEEPEDPSNRSFFSEIISSISDVKFSHSGRYMMTRDYLSVKIWDLNMENRPVETYQVHEYLRSKLCSLYENACIFDKFECCWNGSDSVVMTGSYNNFFRMFDRNTKRDITLEASRENNKPRTVLKPRKVCASGKRKKDEISVDSLDFNKKILHTAWHPKENIIAVATTNNLYIFQDKVN [chain 2 D340A] | ~28%
12 | chain 2 MAGAGGGNDIQWCFSQVKGAVDDDVAEADIISTVEFNHSGELLATGDKGGRVVIFQQEQENKIQSHSRGEYNVYSTFQSHEPEFDYLKSLEIEEKINKIRWLPQKNAAQFLLSTNDKTIKLWKISERDKRPEGYNLKEEDGRYRDPTTVTTLRVPVFRPMDLMVEASPRRIFANAHTYHINSISINSDYETYLSADALRINLWHLEITDRSFNIVDIKPANMEELTEVITAAEFHPNSCNTFVYSSSKGTIRLCDMRASALCDRHSKLFEEPEDPSNRSFFSEIISSISDVKFSHSGRYMMTRDYLSVKIWDLNMENRPVETYQVHEYLRSKLCSLYENDCIFDKFECCWNGSDSVVMTGSYNNFFRMFDRNTKRDITLEASRENNKPRTVLKPRKVCASGKRKKDEISVDSLDFNKKILHTAWHPKENIIAVATTNNLYIFQDKVN [chain 2 D197A] | ~80%
13 | chain 2 MAGAGGGNDIQWCFSQVKGAVDDDVAEADIISTVEFNHSGELLATGDKGGRVVIFQQEQENKIQSHSRGEYNVYSTFQSHEPEFDYLKSLEIEEKINKIRWLPQKNAAQFLLSTNDKTIKLWKISERDKRPEGYNLKEEDGRYRDPTTVTTLRVPVFRPMDLMVEASPRRIFANAHTAHINSISINSDYETYLSADDLRINLWHLEITDRSFNIVDIKPANMEELTEVITAAEFHPNSCNTFVYSSSKGTIRLCDMRASALCDRHSKLFEEPEDPSNRSFFSEIISSISDVKFSHSGRYMMTRDYLSVKIWDLNMENRPVETYQVHEYLRSKLCSLYENDCIFDKFECCWNGSDSVVMTGSYNNFFRMFDRNTKRDITLEASRENNKPRTVLKPRKVCASGKRKKDEISVDSLDFNKKILHTAWHPKENIIAVATTNNLYIFQDKVN [chain 2 Y178A] | ~90%
